From PMC10397247 come the findings set out here.

What all share (test): two-hybrid library CCNG1;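 also: natural log of median RNA to DNA barcode read ratio; higher means stronger binding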
The target in one test is T1, 4H182-bH.
T1 chain: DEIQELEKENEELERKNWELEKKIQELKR

In another test the target is T2, 4H2134-bH.
T2 chain: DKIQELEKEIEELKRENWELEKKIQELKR

The target of a further test is T3, 4H2143-bH.
T3 chain: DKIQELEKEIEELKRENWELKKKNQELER

The target of the next test is T4, 4H2223-bH.
T4 chain: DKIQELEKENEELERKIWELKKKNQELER

The target in another test is T5, 4H2438-bH.
T5 chain: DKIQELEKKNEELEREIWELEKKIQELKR

The next test addresses T6, 4H2473-bH.
T6 chain: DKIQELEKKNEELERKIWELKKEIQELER

In a further test the target is T7, 4H2503-bH.
T7 chain: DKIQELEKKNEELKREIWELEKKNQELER

The next test has as its target T8, 4H2588-bH.
T8 chain: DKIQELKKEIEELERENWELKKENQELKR

The next test addresses T9, 4H2692-bH.
T9 chain: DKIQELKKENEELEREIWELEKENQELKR

A further test deals with T10, 4H2717-bH.
T10 chain: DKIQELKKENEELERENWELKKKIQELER

For a further test, the target named is T11, 4H2839-bH.
T11 chain: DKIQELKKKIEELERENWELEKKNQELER

The next test has as its target T12, 4H2915-bH.
T12 chain: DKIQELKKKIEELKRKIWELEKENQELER

Another test deals with T13, 4H3057-bH.
T13 chain: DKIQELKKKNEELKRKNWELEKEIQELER

In a further test the target is T14, 4H319-bH.
T14 chain: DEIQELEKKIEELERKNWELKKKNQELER

A further test addresses T15, 4H3277-bH.
T15 chain: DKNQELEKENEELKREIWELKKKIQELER

For the next test, the target named is T16, 4H348-bH.
T16 chain: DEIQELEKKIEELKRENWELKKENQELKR

The next test has as its target T17, 4H40-bH.
T17 chain: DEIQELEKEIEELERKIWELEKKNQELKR

In the next test the target is T18, 4H477-bH.
T18 chain: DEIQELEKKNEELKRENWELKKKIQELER

The target of the next test is T19, 4H492-bH.
T19 chain: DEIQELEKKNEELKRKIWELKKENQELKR

The next test concerns the target T20, 4H741-bH.
T20 chain: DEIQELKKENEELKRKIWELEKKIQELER

The target of another test is T21, 4H112-bN.
T21 chain: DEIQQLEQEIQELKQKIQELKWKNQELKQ

Another test deals with T22, 4H1158-bN.
T22 chain: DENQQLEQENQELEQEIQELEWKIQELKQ

The target in the next test is T23, 4H118-bN.
T23 chain: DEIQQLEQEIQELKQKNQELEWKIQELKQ

The target in the next test is T24, 4H170-bN.
T24 chain: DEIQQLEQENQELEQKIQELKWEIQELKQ

In another test the target is T25, 4H1831-bN.
T25 chain: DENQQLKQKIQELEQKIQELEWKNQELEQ

The target of a further test is T26, 4H2586-bN.
T26 chain: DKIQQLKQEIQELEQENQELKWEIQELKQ

In another test the target is T27, 4H2627-bN.
T27 chain: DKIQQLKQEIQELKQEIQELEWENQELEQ

Another test addresses T28, 4H2673-bN.
T28 chain: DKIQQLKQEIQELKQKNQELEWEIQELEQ

Another test deals with T29, 4H2702-bN.
T29 chain: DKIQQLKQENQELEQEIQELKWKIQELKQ

Another test has as its target T30, 4H3010-bN.
T30 chain: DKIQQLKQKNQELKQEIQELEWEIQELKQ

A further test deals with T31, 4H3112-bN.
T31 chain: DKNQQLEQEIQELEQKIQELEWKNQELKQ

For a further test, the target named is T32, 4H3427-bN.
T32 chain: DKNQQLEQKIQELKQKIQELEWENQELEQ

The target of the next test is T33, 4H346-bN.
T33 chain: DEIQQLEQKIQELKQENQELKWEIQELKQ

The next test deals with T34, 4H3926-bN.
T34 chain: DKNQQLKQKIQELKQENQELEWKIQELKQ

A further test has as its target T35, 4H4073-bN.
T35 chain: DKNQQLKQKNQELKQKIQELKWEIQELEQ

Another test has as its target T36, 4H457-bN.
T36 chain: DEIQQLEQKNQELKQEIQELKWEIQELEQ

The target of another test is T37, 4H575-bN.
T37 chain: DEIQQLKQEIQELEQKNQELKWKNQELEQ

A further test deals with T38, 4H683-bN.
T38 chain: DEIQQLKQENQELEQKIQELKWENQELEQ

In the next test the target is T39, 4H754-bN.
T39 chain: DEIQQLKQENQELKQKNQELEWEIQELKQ

A further test deals with T40, 4H780-bN.
T40 chain: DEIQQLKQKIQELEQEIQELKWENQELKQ

For a further test, the target named is T41, 4H797-bN.
T41 chain: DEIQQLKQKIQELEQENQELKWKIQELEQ

The target in a further test is T42, 4H855-bN.
T42 chain: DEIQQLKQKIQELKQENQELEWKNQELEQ

In another test the target is T43, 4H918-bN.
T43 chain: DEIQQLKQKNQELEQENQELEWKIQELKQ

For a further test, the target named is T44, 4H953-bN.
T44 chain: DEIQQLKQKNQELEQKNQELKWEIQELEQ

Another test addresses T45, 4H968-bN.
T45 chain: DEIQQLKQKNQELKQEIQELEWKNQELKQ

A further test deals with T46, 4H1359-bA.
T46 chain: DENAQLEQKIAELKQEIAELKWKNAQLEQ

Another test has as its target T47, 4H1393-bA.
T47 chain: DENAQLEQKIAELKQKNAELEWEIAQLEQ

In another test the target is T48, 4H1449-bA.
T48 chain: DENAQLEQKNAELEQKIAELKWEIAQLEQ

The target of another test is T49, 4H1629-bA.
T49 chain: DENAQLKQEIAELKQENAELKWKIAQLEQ

The next test concerns the target T50, 4H1710-bA.
T50 chain: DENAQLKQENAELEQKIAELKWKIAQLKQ

The target in another test is T51, 4H1804-bA.
T51 chain: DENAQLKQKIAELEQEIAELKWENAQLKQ

The next test addresses T52, 4H1985-bA.
T52 chain: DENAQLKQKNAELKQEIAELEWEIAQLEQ

The next test addresses T53, 4H3129-bA.
T53 chain: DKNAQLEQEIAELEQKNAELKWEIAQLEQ

The target of the next test is T54, 4H3172-bA.
T54 chain: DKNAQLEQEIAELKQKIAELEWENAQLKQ

The target in another test is T55, 4H3414-bA.
T55 chain: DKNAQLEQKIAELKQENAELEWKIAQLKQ

The target of a further test is T56, 4H3631-bA.
T56 chain: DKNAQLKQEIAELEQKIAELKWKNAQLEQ

Another test deals with T57, 4H3638-bA.
T57 chain: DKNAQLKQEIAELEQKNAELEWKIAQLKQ

The target of the next test is T58, 4H3817-bA.
T58 chain: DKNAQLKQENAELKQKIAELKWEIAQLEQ

The next test deals with T59, 4H3974-bA.
T59 chain: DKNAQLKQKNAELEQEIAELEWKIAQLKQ

The target of a further test is T60, 4H570-bA.
T60 chain: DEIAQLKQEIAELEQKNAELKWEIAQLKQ

The target in another test is T61, 4H584-bA.
T61 chain: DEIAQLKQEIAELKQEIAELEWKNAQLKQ

Another test has as its target T62, 4H619-bA.
T62 chain: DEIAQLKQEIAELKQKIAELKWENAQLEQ

Another test has as its target T63, 4H850-bA.
T63 chain: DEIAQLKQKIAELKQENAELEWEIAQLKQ

The target in another test is T64, 4H906-bA.
T64 chain: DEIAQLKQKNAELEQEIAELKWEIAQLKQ

Turning to DEIQELEKENEELERKNWELEKKIQELKR [4H182-bH], the interaction score with 4H182-bH was 0.517; with 4H2134-bH, 0.462; in the test with 4H2143-bH, 0.14; with 4H2223-bH it was 0.341; in the test with 4H2438-bH, -0.311; in the test with 4H2473-bH, 0.11. Further, the interaction score with 4H2503-bH was 0.0255; with 4H2588-bH it was -0.809; in the test with 4H2692-bH it was 1.16; with 4H2717-bH, -0.508; with 4H2839-bH, -0.281; with 4H2915-bH, 0.801. Also, the interaction score is 0.511 with 4H3057-bH; 0.27 in the test with 4H319-bH; -0.523 with 4H3277-bH; -0.493 with 4H348-bH; -0.335 in the test with 4H40-bH; -0.331 in the test with 4H477-bH. In addition, the interaction score with 4H492-bH is -0.775; in the test with 4H741-bH, -0.207.
Regarding DEIQQLEQEIQELKQKIQELKWKNQELKQ [4H112-bN], the interaction score in the test with 4H112-bN is 1.46; with 4H1158-bN, 0.877; with 4H118-bN, -0.511; with 4H170-bN it was -0.245; with 4H1831-bN, 0.348; with 4H2586-bN, -1.21. The interaction score with 4H2627-bN was 1.22; with 4H2673-bN it was 0.592; in the test with 4H2702-bN, 0.834; with 4H3010-bN, 1.25; with 4H3112-bN, 1.44; in the test with 4H3427-bN, 1.06. The interaction score in the test with 4H346-bN is -0.486; with 4H3926-bN it was -1.67; with 4H4073-bN, 1.25; in the test with 4H457-bN, 0.723; with 4H575-bN it was -0.471; in the test with 4H683-bN, -0.968. The interaction score with 4H754-bN is -0.189; in the test with 4H780-bN it was 0.755; with 4H797-bN, -1.01; with 4H855-bN, -0.582; with 4H918-bN it was -0.456; with 4H953-bN, -0.805. This molecule came in with an interaction score with 4H968-bN of 0.452.
On to DENAQLEQKIAELKQEIAELKWKNAQLEQ [4H1359-bA], for which the interaction score in the test with 4H1359-bA is 0.162; in the test with 4H1393-bA, -0.644; in the test with 4H1449-bA, -0.804; with 4H1629-bA, -0.732; with 4H1710-bA, -0.54; with 4H1804-bA it was -0.948. The interaction score was 0.768 with 4H1985-bA; -0.77 with 4H3129-bA; -0.287 with 4H3172-bA; -0.665 with 4H3414-bA; 1.41 with 4H3631-bA; -0.492 in the test with 4H3638-bA. Also, the interaction score was -0.524 with 4H3817-bA; -0.0513 with 4H3974-bA; -0.609 with 4H570-bA; -0.341 with 4H584-bA; -0.844 with 4H619-bA; -0.751 with 4H850-bA. The interaction score in the test with 4H906-bA was -0.601.
